These results are taken from paper PMC1931443.

In one data set the target is DMRT1 (mouse) (UniProt Q9QZ59). Put plainly: competition. Particulars: 40-fold excess unlabeled SELF; EMSA: 10 mM Tris-HCl pH 7.9, 100 mM KCl, 10% glycerol, 5 mM MgCl2, 1 mM spermidine, 0.075% Triton-X-100, 1 mM DTT, 1 ug BSA, 0.1 ug dI-dC, 75 ng plasmid DNA, 0. (In general: In EMSA bound probe runs differently from free probe, usually more slowly.)
The next data set addresses T1, DMRT5 (mouse) (UniProt A2A9A2).
T1 sequence: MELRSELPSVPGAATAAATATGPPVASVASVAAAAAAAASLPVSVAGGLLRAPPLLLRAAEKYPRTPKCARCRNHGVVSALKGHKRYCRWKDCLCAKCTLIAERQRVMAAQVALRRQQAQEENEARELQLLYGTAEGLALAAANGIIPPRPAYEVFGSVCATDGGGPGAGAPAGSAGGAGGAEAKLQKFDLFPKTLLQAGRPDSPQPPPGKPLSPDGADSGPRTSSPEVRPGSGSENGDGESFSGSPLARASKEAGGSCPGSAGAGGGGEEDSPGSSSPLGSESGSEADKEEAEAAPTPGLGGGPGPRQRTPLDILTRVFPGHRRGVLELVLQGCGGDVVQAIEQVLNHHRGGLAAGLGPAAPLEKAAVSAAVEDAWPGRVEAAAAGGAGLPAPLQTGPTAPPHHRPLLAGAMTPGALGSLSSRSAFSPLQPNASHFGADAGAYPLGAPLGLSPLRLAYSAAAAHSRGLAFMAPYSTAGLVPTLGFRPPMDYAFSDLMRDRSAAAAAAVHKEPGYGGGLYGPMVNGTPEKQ
Put plainly: competition. To be noted: 40-fold excess unlabeled SELF; EMSA: 10 mM Tris-HCl pH 7.9, 100 mM KCl, 10% glycerol, 5 mM MgCl2, 1 mM spermidine, 0.075% Triton-X-100, 1 mM DTT, 1 ug BSA, 0.1 ug dI-dC, 75 ng plasmid DNA, 0.

DMRT1 (mouse), sequence (Q9QZ59 whole entry): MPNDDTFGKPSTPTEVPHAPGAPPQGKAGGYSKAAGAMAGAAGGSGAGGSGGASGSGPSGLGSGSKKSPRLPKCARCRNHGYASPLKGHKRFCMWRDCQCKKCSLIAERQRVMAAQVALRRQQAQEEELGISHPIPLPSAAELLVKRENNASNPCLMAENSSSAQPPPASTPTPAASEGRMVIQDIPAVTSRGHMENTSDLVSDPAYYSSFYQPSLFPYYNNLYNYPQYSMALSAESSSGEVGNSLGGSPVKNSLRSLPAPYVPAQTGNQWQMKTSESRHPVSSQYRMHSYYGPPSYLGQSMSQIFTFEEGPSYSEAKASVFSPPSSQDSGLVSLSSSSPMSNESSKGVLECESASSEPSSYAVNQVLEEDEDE

Regarding “TCGAGATTTGATACATTGTTGC / TCGAGCAACAATGTATCAAATC [DMRT1 consensus (1RE, general gel shift)]”, the binding signal (relative to SELF) in the data set with DMRT1 (mouse) and with DMRT5 (mouse) was 1 throughout.
